In assay [1] the target is β-barrel assembly machinery (BAM), five components BamA-E, inserted in nanodiscs (E. coli, UniProt P0A940 21-810; P77774 20-392; P0A903 25-344; P0AC02 20-245; P0A937 20-113). The assay can be described thus: cryo-EM structure; MBP-EspP (3.6 μM, from urea) folded in vitro overnight into BAM nanodiscs (1.8 μM) with SurA (25.2 μM) in 1x TBS with 1 M urea, then SEC (Superdex 200 Increase); 7.0 Å map. To be noted: both partners purified.

Assay [2] has as its target BamA (subunit of E. coli BAM) (E. coli, UniProt P0A940 21-810). Described as above. To be noted: both partners purified.

B1: MBP-EspP (residues 748–1300 of EspP) with an N-terminal 6xHis tag (domain or fragment)
chain: SGMFSTSDISISGNLSMTGNPDKDNKFEPSIYLNDASYLLTDDSARLVAKNKASVVGDIHSTKSASIMFGHDESDLSQLSDRTSKGLALGLLGGFDVSYRGSVNAPSASATMNNTWWQLTGDSALKTLKSTNSMVYFTDSANNKKFHTLTVDELATSNSAYAMRTNLSESDKLEVKKHLSGENNILLVDFLQKPTPEKQLNIELVSAPKDTNENVFKASKQTIGFSDVTPVITTRETDDKITWSLTGYNTVANKEATRNAAALFSVDYKAFLNEVNNLNKRMGDLRDINGEAGAWARIMSGTGSASGGFSDNYTHVQVGVDKKHELDGLDLFTGFTVTHTDSSASADVFSGKTKSVGAGLYASAMFDSGAYIDLIGKYVHHDNEYTATFAGLGTRDYSTHSWYAGAEAGYRYHVTEDAWIEPQAELVYGSVSGKQFAWKDQGMHLSMKDKDYNPLIGRTGVDVGKSFSGKDWKVTARAGLGYQFDLLANGETVLRDASGEKRIKGEKDSRMLMSVGLNAEIRDNVRFGLEFEKSAFGKYNVDNAVNANFRYSF
notes: also called MBP-EspP substrate
On to B1, for which the binding result in assay [1] and in assay [2] was “binds” each time.

These data come from article PMC8655018 (Nature Communications, 2021).
